Measurements reported in patent US10961297 (SANFORD BURNHAM PREBYS MEDICAL DISCOVERY INSTITUTE, dated 2021).

Assays:
human BTLA-Fc (human) [1] = biological target: human BTLA-Fc (human) (UniProt Q7Z6A9); assay: SPR, human BTLA-Fc immobilised, Fc fusion as analyte, monovalent analysis
human BTLA-Fc (human) [2] = biological target: human BTLA-Fc (human) (UniProt Q7Z6A9); assay: SPR, human BTLA-Fc immobilised, Fc fusion as analyte, monovalent (1:1) analysis
human BTLA-Fc (human) [3] = biological target: human BTLA-Fc (human) (UniProt Q7Z6A9); assay: SPR, human BTLA-Fc immobilised, Fc fusion as analyte, bivalent analysis
[4] = biological target: T1, wild-type human BTLA on cells (human, UniProt Q7Z6A9 31-289); assay: co-expression on 293T cells, loss of staining by Fc ligands in trans
T1 construct: whole, on cells

[5] = biological target: T2, human HVEM Y61C mutant on 293T cells (human, UniProt Q92956 39-283); assay: flow cytometry, CD160-Fc on 293T cells with mutant HVEM
T2 construct: also called Tyr^61
T2 sequence: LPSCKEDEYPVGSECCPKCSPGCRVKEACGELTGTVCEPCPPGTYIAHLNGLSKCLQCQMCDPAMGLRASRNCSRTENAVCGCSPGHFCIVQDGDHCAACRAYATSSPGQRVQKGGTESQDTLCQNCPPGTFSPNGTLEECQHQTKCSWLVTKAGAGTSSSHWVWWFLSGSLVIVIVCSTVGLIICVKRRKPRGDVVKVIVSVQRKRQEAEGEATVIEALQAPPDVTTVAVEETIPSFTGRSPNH

[6] = biological target: T3, human HVEM T82P mutant on 293T cells (human, UniProt Q92956 39-283); assay: as above
T3 construct: also called Thr^82
T3 sequence: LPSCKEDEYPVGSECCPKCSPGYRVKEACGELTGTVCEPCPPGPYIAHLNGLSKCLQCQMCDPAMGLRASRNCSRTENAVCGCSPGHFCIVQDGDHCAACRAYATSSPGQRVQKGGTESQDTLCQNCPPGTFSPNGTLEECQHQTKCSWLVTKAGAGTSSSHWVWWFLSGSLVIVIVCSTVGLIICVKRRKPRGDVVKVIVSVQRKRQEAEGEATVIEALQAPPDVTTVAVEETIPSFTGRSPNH

[7] = biological target: T4, human HVEM G60D mutant on 293T cells (human, UniProt Q92956 39-283); assay: as above
T4 construct: also called Gly^60
T4 sequence: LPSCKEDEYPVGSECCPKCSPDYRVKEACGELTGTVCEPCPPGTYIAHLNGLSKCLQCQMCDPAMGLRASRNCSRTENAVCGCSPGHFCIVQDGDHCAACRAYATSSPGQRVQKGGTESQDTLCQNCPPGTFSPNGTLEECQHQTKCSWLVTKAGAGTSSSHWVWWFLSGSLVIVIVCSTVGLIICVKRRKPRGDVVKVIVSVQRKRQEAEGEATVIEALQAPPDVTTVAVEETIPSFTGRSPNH

[8] = biological target: T5, human HVEM A102P mutant on 293T cells (human, UniProt Q92956 39-283); assay: as above
T5 construct: also called Ala^102
T5 sequence: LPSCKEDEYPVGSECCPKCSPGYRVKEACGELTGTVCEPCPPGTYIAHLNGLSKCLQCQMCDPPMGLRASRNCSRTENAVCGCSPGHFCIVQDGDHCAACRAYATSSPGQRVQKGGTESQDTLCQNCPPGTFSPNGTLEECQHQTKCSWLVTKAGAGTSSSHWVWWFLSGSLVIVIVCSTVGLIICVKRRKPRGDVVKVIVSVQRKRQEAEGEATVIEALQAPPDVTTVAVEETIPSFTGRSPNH

[9] = biological target: T6, human HVEM P59S mutant on 293T cells (human, UniProt Q92956 39-283); assay: as above
T6 construct: also called Pro^59
T6 sequence: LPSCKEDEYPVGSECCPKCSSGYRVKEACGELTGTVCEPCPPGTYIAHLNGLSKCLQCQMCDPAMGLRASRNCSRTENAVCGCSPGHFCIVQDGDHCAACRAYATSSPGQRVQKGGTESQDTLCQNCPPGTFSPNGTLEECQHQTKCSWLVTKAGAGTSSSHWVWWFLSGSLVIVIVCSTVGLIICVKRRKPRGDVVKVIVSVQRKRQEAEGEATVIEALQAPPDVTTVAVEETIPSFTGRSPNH

[10] = biological target: T7, human HVEM G72D mutant on 293T cells (human, UniProt Q92956 39-283); assay: as above
T7 construct: also called Gly^72
T7 sequence: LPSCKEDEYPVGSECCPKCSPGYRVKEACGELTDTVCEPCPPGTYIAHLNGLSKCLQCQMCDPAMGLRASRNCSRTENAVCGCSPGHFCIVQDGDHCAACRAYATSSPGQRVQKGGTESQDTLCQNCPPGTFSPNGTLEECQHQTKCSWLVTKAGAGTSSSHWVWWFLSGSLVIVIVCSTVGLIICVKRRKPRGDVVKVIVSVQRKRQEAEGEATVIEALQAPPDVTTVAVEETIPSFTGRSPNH

[11] = biological target: T8, human HVEM R109W mutant on 293T cells (human, UniProt Q92956 39-283); assay: as above
T8 construct: also called Arg^109
T8 sequence: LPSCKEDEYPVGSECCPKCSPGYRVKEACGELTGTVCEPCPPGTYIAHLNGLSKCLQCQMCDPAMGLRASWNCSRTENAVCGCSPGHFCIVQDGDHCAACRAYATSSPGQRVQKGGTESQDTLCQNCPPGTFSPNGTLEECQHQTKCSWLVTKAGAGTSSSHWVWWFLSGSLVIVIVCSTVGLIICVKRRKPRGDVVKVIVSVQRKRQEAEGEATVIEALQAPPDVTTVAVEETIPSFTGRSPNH

[12] = biological target: T9, human BTLA H127D mutant on EL4 cells (human, UniProt Q7Z6A9 31-289); assay: flow cytometry, EL4 cells transduced with mutant human BTLA, HVEM-Fc then anti-human Fc [panel B]
T9 construct: whole, on cells; also called His127

[13] = biological target: T10, human BTLA P59A mutant on EL4 cells (human, UniProt Q7Z6A9 31-289); assay: as above
T10 construct: whole, on cells; also called Pro59

[14] = biological target: T11, human BTLA R42D mutant on EL4 cells (human, UniProt Q7Z6A9 31-289); assay: as above
T11 construct: whole, on cells; also called Arg42

[15] = biological target: T12, human BTLA Q37A mutant on EL4 cells (human, UniProt Q7Z6A9 31-289); assay: as above
T12 construct: whole, on cells; also called Gln37

[16] = biological target: T13, BTLA (form in the assay not stated) (UniProt Q7Z6A9 31-157); assay: not told
T13 sequence: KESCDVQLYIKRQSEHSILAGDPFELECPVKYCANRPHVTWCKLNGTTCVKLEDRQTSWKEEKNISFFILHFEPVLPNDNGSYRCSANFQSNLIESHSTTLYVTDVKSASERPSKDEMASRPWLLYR

[17] = biological target: T3, human HVEM T82P mutant on 293T cells; assay: flow cytometry, LIGHT on 293T cells with mutant HVEM
[18] = biological target: T4, human HVEM G60D mutant on 293T cells; assay: as above

Chain of human BTLA-Fc (human) (Q7Z6A9 26-150 limits assumed): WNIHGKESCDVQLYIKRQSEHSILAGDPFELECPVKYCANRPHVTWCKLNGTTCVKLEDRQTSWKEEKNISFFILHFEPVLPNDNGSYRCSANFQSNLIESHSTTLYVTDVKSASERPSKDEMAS

human HVEM-Fc (from UniProt Q92956 39-184) (Fc fusion)
koff (human BTLA-Fc (human) [1]): 0.0066 s⁻¹ | kon (human BTLA-Fc (human) [1]): 37400 M⁻¹ s⁻¹ | Kd (human BTLA-Fc (human) [2]): 177 nM | ka1 (human BTLA-Fc (human) [3]): 15300 M⁻¹ s⁻¹ | ka2 (human BTLA-Fc (human) [3]): 0.0573 M⁻¹ s⁻¹ | kd1 (human BTLA-Fc (human) [3]): 0.00902 s⁻¹ | kd2 (human BTLA-Fc (human) [3]): 2.05 s⁻¹

human CMV UL144-Fc (Fc fusion)
koff (human BTLA-Fc (human) [1]): 0.00476 s⁻¹ | kon (human BTLA-Fc (human) [1]): 16100 M⁻¹ s⁻¹ | Kd (human BTLA-Fc (human) [2]): 295 nM | ka1 (human BTLA-Fc (human) [3]): 7810 M⁻¹ s⁻¹ | ka2 (human BTLA-Fc (human) [3]): 1.39e-05 | kd1 (human BTLA-Fc (human) [3]): 0.0051 s⁻¹ | kd2 (human BTLA-Fc (human) [3]): 0.00289 s⁻¹

B1: wild-type human HVEM on 293T cells (receptor)
chain: LPSCKEDEYPVGSECCPKCSPGYRVKEACGELTGTVCEPCPPGTYIAHLNGLSKCLQCQMCDPAMGLRASRNCSRTENAVCGCSPGHFCIVQDGDHCAACRAYATSSPGQRVQKGGTESQDTLCQNCPPGTFSPNGTLEECQHQTKCSWLVTKAGAGTSSSHWVWWFLSGSLVIVIVCSTVGLIICVKRRKPRGDVVKVIVSVQRKRQEAEGEATVIEALQAPPDVTTVAVEETIPSFTGRSPNH
notes: also called TNFRSF14
binding result [4]: binds

B2: CD160-Fc (Fc fusion)
chain: INITSSASQEGTRLNLICTVWHKKEEAEGFVVFLCKDRSGDCSPETSLKQLRLKRDPGIDGVGEISSQLMFTISQVTPLHSGTYQCCARSQKSGIRLQGHFFSILFTETGNYTVTGLKQRQHLEFSHNEGTLS
binding result [5]: no binding | binding result [6]: no binding | binding result [7]: no binding | binding result [8]: no binding | binding result [9]: no binding | binding result [10]: no binding | binding result [11]: no binding

B3: human HVEM-Fc (Fc fusion)
chain: LPSCKEDEYPVGSECCPKCSPGYRVKEACGELTGTVCEPCPPGTYIAHLNGLSKCLQCQMCDPAMGLRASRNCSRTENAVCGCSPGHFCIVQDGDHCAACRAYATSSPGQRVQKGGTESQDTLCQNCPPGTFSPNGTLEECQHQTK
notes: also called parental HVEM-Fc; not shown: human IgG Fc region
binding result [12]: no binding | binding result [13]: no binding | binding result [14]: no binding | binding result [15]: no binding

B4: HVEM-RTWA (HVEM-Fc mutein with S58R, G68T, L70W and L90A) (Fc fusion)
chain: LPSCKEDEYPVGSECCPKCRPGYRVKEACTEWTGTVCEPCPPGTYIAHLNGASKCLQCQMCDPAMGLRASRNCSRTENAVCGCSPGHFCIVQDGDHCAACRAYATSSPGQRVQKGGTESQDTLCQNCPPGTFSPNGTLEECQHQTK
notes: also called RTWA mutant; HVEM^RTWA Fc; not shown: human IgG Fc region
fold enhancement of BTLA affinity (against HVEM-RA) [16]: 10 fold

B5: LIGHT (ligand)
chain: DGPAGSWEQLIQERRSHEVNPAAHLTGANSSLTGSGGPLLWETQLGLAFLRGLSYHDGALVVTKAGYYYIYSKVQLGGVGCPLGLASTITHGLYKRTPRYPEELELLVSQQSPCGRATSSSRVWWDSSFLGGVVHLEAGEKVVVRVLDERLVRLRDGTRSYFGAFMV
notes: also called TNFSF ligand LIGHT
binding result [17]: no binding | binding result [18]: no binding
